Results reported in patent US20210030857A1 (NGM BIOPHARMACEUTICALS, published 2021).

How the values were obtained:
[1] = biological target: T1, human beta klotho mutant Y701A on HEK-293T cells (human, UniProt Q86Z14 1-1044); experiment: shotgun alanine mutagenesis, FACS on HEK-293T cells
T1 sequence: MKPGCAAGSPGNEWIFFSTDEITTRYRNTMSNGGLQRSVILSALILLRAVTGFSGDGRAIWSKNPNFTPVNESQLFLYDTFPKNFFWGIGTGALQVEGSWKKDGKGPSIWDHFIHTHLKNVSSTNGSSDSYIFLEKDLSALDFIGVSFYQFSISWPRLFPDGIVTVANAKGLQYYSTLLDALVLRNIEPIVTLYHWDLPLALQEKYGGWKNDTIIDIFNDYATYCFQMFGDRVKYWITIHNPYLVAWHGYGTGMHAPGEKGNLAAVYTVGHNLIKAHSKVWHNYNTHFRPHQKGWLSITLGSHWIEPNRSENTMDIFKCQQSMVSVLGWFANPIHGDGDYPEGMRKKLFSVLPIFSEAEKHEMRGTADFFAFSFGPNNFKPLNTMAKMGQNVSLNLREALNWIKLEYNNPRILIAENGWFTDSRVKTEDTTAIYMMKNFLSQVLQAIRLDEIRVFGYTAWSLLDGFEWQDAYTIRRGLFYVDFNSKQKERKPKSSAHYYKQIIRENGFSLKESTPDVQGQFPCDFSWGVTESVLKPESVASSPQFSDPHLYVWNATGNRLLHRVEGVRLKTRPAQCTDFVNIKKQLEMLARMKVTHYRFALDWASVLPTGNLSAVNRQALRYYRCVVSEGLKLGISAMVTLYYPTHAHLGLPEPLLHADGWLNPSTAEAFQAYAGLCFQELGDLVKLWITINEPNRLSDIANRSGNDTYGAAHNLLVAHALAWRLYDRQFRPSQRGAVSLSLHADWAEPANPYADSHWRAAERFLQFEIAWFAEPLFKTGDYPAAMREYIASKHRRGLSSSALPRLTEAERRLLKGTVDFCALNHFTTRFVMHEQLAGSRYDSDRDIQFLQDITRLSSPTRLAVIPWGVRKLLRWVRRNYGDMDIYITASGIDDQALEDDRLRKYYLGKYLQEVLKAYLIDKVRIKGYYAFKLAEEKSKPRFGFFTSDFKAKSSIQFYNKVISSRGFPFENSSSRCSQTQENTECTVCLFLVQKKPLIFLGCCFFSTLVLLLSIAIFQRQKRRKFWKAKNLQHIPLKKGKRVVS
Description: (§1) In order to further identify specific binding residues within human beta klotho KL2 domain, shotgun mutagenesis was used to separately mutate individual residues of the KL2 domain of human beta klotho to an alanine (e.g., residues F508A-L1008A). […] For example, screening of the beta klotho mutant proteins was conducted at a concentration of 0.5 μg/ml for the humanized 5H23 antibody, 1.0 μg/ml for the Fab fragment, and 2.0 μg/ml for a positive control polyclonal anti-beta klotho antibodies.

[2] = biological target: T2, human beta klotho mutant R703A on HEK-293T cells (human, UniProt Q86Z14 1-1044); experiment: as above
T2 sequence: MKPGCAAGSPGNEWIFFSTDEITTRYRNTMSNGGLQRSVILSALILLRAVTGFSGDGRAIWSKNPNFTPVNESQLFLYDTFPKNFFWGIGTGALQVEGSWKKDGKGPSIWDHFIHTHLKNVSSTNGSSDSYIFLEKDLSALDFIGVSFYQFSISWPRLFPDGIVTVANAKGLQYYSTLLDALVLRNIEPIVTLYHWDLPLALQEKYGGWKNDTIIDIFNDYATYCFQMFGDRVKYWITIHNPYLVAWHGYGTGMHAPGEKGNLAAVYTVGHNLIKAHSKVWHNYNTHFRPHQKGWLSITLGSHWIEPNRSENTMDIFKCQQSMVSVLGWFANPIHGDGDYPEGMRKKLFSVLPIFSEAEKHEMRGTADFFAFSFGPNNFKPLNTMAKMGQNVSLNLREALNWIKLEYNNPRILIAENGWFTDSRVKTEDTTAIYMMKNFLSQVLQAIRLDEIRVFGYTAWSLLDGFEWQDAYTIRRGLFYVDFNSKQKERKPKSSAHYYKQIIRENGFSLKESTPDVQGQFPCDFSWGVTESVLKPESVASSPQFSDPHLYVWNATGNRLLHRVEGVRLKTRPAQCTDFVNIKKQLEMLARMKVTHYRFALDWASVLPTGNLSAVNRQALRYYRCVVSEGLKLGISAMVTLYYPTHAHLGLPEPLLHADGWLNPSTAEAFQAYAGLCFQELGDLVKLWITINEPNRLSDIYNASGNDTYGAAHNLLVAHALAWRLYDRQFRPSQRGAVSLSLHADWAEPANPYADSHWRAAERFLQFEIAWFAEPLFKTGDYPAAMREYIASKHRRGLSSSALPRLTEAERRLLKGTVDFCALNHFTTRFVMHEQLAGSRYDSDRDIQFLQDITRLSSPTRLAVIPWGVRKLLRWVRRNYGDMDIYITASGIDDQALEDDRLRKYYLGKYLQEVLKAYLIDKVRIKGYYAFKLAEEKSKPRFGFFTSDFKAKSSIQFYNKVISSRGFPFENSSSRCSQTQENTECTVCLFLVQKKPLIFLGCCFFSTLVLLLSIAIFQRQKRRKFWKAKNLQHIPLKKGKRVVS
Description: as §1

B1: humanized 5H23 antibody (VH SEQ ID NO: 271 and VL SEQ ID NO: 276) (antibody, V domains shown)
VH: QVQLQQSGAEVKKPGASVKVSCKASGYTFTSYDINWVRQAPGQGLEWIGWIYPGDGSTKYNEKFKGKATITRDTSASTAYMELSSLRSEDTAVYFCARSDYYGSRSFAYWGQGTLVTVSS
VL: DIVMTQSPDSLAVSLGERATINCRASKSVSTSGYVYMHWYQQKPGQPPKLLIYLASYLESGVPDRFSGSGSGTDFTLTISSVQAEDVAVYYCQHSRDLTFPFGGGTKLEIK
notes: also called h5H23; h5H23 (Prep 1)
B1: no binding (tested: 0.5 µg/ml) [1]; no binding (tested: 0.5 µg/ml) [2].
